The values that follow come from a protein production outcome set (Wang et al. 2014).

This data set is described as follows: label from the status in PepcDB records.
For “MSGTKLEDSPPCRNWSSASELNETQEPFLNPTDYDDEEFLRYLWREYLHPKEYEWVLIAGYIIVFVVALIGNVLVCVAVWKNHHMRTVTNYFIVNLSLADVLVTITCLPATLVVDITETWFFGQSLCKVIPYLQTVSVSVSVLTLSCIALDRWYAICHPLMFKSTAKRARNSIVIIWIVSCIIMIPQAIVMECSTVFPGLANKTTLFTVCDERWGGEIYPKMYHICFFLVTYMAPLCLMVLAYLQIFRKLWCRQIPGTSSVVQRKWKPLQPVSQPRGPGQPTKSRMSAVAAEIKQIRARRKTARMLMVVLLVFAICYLPISILNVLKRVFGMFAHTEDRETVYAWFTFSHWLVYANSAANPIIYNFLSGKFREEFKAAFSCCCLGVHHRQEDRLTRGRTSTESRKSLTTQISNFDNISKLSEQVVLTSISTLPAANGAGPLQNW”, the protein production result was “failed”. Under “MSGTLFTYRRKVDFGDCDSARIYFTPRAVDYAVEAVEAWFGDVLGVSWADLFLRHDLDVTFVRMGCEYFRPVIADQTVHVRVRATAVDRSSVTFSAAGEDDSGGVFFRATLVAQFRAGRNRAPVPIPPRYRERMEDCLEQADGKSGTVAQRVGGEPFLSRLQSDGVHFTVRRRVVYGDCTLSGTVYAPRLFNYAVEAVGEWYRETLGISWREQCIRLRGAPFREVWCERLAPLVPGQVITMTVGIPRLGKSSIGYEVVGYDDRGEPCFQVGMSACYISEETGSIKAIPFPDDMRSRILAYQVLCDQGVIPATAS” stands “failed”; under “MSHAKGFKKDYYGGTLMALVGLAAVMAGLQYHTGSLSHMGPGFFPVAVGALLAFVGVLIAVSARNDEPKEDKPSGHGHSHAAPDLRGTVCIVLGTLAFLLFGKYGGMIPATFAIVFISALGDRSNSIKQAFLLSIAMCVIAAVVFSWALQLQLPMFTWGA”, “failed”. As for “MSHAVANKTETEAAPNSSLKQSAAPQPANSHDAKLLNGTLARTNGLTHAASVATSSSGSYGSSSAAGSNAGSGGPTSSASLSIAAGVASSTALPLPPSSNGLQMPYERFRADDTSYVPIAQFYAGRSVFITGGTGFMGKVLVEKLLRSCPEIRNIYLLIRPKRGQEVSARLTELLNAPLFESLRQEKPKELSKVIPISGDITSEELGISEKDQNLLCRNVSVVFHSAATVKFDEKLKLSVTINMLGTKRLVELCHRMLSLDALIHVSTAYCNCDRTDVSEVIYAPPYNPDDIISLINWLPEDILDQLTPRLIGKRPNTYTFTKALAEHMLLKEAGNLPVAIVRPSIVTASLNEPFAGWVDNFNGPTGLVSALAKGMFRTMMCEKNYVADMVPVDIVINLMIAAAWRTATRKSNNLLIYNCCTGQRNPIIWSEFVKHAMTSVRKHPLEGCLWYPTGDLRMNRPMNTLNCIAKHFLPAYILDGVARIMGKKPFVVNVQNKIAKAVECLEYFATRQWRFKDDNVHALLHTLSPKDREIFVFDVRHINWDKYVERYVLGFREFLFKQRPESLPASRKRMLRLYYLHQLTKLVAVLLTWRFLMSRSKRLNDLWSSFLENALRMARLIPFL”, the protein production entry is listed as “failed”. For “MSHAVVSWTLWSLALYLTLPYLSSAIEHSINNPLFVGPFYIISSGIGSLSLLALERHVKLLSTIGLALSGIGLLMIGVDANQLLTIIGFIFYNLYWLSVPIFYYLLSEEEGSLTKAWSISMVPAIIMPVIAGILIRWGEIIIFILGGLLQLTSSIILILVKHRIDEDHMVGYDVGIPKNVIFVVLPLSIVMPFLYLDVRESLIWVIYSSGQILGILMSWFLWKSKNAIMLSLIIFSGIIFSVFSPIGILFYGSSEALVALGIEKSRPSLMKHAIKVALTEALVWTVGYAVGSLLYYISGFLPFIYSSLVSLILAMIIGLFSSLTFNSVISKNPLKNTIPFKIVRYLTLREGIFPYFKIS” the value was “failed”. As for “MSHEVDELFDAEMLQQAKTLSAFMSVNSERLPEAGVIIESIGAHNYEDKLSYRIENTEELLLMQTEGAPDASAFEFIPGFSVKRVKDELWHAFGLENATGQRILMLQEDGFRSELRMDLTVDTVIPILLILPFMLWLGWWTINRNFSSFNRLAGELRRKRADDYTNFVEDNDREEVALVKRSLNHYINRIEQTFLREKRFSADAAHELRTPLASLKAQIQSRLGSATSEQQNELQPLLDSTERLVKLVESLLQLSKAELPPEQLKQVNVASVLRQVLADQYVAAESKGLSYHAQLPTVFQQTSDESYLYLLFANALDNAIKYAVPGSHIGIEVTENQIFVCNRVAADHVIDIDRITERFYRGKQLDVEGSGLGLSIVRNLAEQLGVQINFRHIDDEFCFIVTFDTDQ”, the protein production result is recorded as “failed”.

As to “MSHFVHPNALCESDTIGEGTRVWAFAHVLPGARLGRDCNICDGVFIESDVVVGDRVTVKCGVQLWDGVRLGDDVFVGPNATFTNDLFPRSRVYPEKFLGTVVESGASIGANATILAGTTIGSGAMIGAGAVVTRSVPPNAIVVGNPARIVGYVSDKDATGSAPSPTGQGITDTAVPGVKLYRMPSFADMRGSLSVGDFETFLPFNAKRYFLVYGVPTQETRGEHAHKRCHQFLICVSGSVRVLADDGTRRIDVELNSPSQGIHLPPMIWGTQYKYSKDAVLLVFASESYDTDEYIRDYSDFKSLANAAR”, the protein production result is given as “failed”. For the sequence “MSHIQRETSCSRPRLNSNLDADLYGYRWARDNVGQSGATIYRLYGKPNAPELFLKHGKGSVANDVTDEMVRLNWLTAFMPLPTIKHFIRTPDDAWLLTTAIPGKTAFQVLEEYPDSGENIVDALAVFLRRLHSIPVCNCPFNSDRVFRLAQAQSRMNNGLVDASDFDDERNGWPVEQVWKEMHKLLPFSPDSVVTHGDFSLDNLIFDEGKLIGCIDVGRVGIADRYQDLAILWNCLGEFSPSLQKRLFQKYGIDNPDMNKLQFHLMLDEFF”, the protein production entry was “not failed”. Under “MSHRSPLRRLYPISAGGTAMRRSFAIGLTVLFLGNGAVMLAAPYPWYLAVPGVVLTGPFNDHFVRDVGAAYLACGVATALGAWNLRRHAGAVVVAATFQGLHAMIHLVTPFCGAGAPWLLLARDFPGVFLPTAATIWLAIAAFQPSEGEQK” stands “failed”.

Take “MSHRSPSVTPAVSVLIPAWNAVRHLPAALDGLLSQTFQDWEAVVVDDGSQDETPALLAAYAARDARIRPLHVEHGGIVHALNHGLLHVRGRHVARMDADDTCHPERLALQCHALDNAPHLGLVASRVTFGGDAAQCGGFVRYVDWTNSLLCHEDIALGRFRESPLVHPSVMFRRELIDRFGPYANGPFPEDYELWLRWLEAGVRMEKLPEHLLVWNDPPGRLTRTHDNYAEAGFVALRTRYLARWLCAHNPQHPDVWVIGAGKASRRRARPLCEHGIRIRAWVDIDPHKIGNIVEGLPVVGREAMPAPGQGFMLAFLAGHGAAEELELFLHGAGYLPGQDYLLASLEHHHHHH”: the protein production result is listed as “not failed”.

For “MSHTKIMSTDQLETQITELDNLPEHREIVTFMRRSAPLNTSQRSALEQYQDLILEYPVGDLRQHFEHPEHPLTVEIGFGMGRSLVLMAKAHPERNFVGIEVHVPGIAQCVYEAGMAGLKNLRVLDADAIQVLREMPDNSINCVQLYFPDPWQKKRHFKRRFVIHERMQLVEQKLELGGTFHAATDWEPYAEWMLDVLDNRPALENLAGKGNSYPRPEWRPQTKFERRGIESGHKINDFIFKKIGS”, the protein production entry is on record as “failed”. For the sequence “MSIDLKKRKVEEDVRSRGKNSKIFSPFRIIGNVSNGVPFATGTLGSTFYIVTCVGKTFQIYDANTLHLLFVSEKETPSSIVALSAHFHYVYAAYENKVGIYKRGIEEHLLELETDANVEHLCIFGDYLCASTDDNSIFIYKKSDPQDKYPSEFYTKLTVTEIQGGEIVSLQHLATYLNKLTVVTKSNVLLFNVRTGKLVFTSNEFPDQITTAEPAPVLDIIALGTVTGEVIMFNMRKGKRIRTIKIPQSRISSLSFRTDGSSHLSVGTSSGDLIFYDLDRRSRIHVLKNIHRESYGGVTQATFLNGQPIIVTSGGDNSLKEYVFDPSLSQGSGDVVVQPPRYLRSRGGHSQPPSYIAFADSQSHFMLSASKDRSLWSFSLRKDAQSQEMSQRLHKKQDGGRVGGSTIKSKFPEIVALAIENARIGEWENIITAHKDEKFARTWDMRNKRVGRWTFDTTDDGFVKSVAMSQCGNFGFIGSSNGSITIYNMQSGILRKKYKLHKRAVTGISLDGMNRKMVSCGLDGIVGFYDFNKSTLLGKLKLDAPITAMVYHRSSDLFALALDDLSIVVIDAVTQRVVRQLWGHSNRITAFDFSPEGRWIVSASLDSTIRTWDLPTGGCIDGIIVDNVATNVKFSPNGDLLATTHVTGNGICIWTNRAQFKTVSTRTIDESEFARMALPSTSVRGNDSMLSGALESNGGEDLNDIDFNTYTSLEQIDKELLTLSIGPRSKMNTLLHLDVIRKRSKPKEAPKKSEKLPFFLQLSGEKVGDEASVREGIAHETPEEIHRRDQEAQKKLDAEEQMNKFKVTGRLGFESHFTKQLREGSQSKDYSSLLATLINFSPAAVDLEIRSLNSFEPFDEIVWFIDALTQGLKSNKNFELYETFMSLLFKAHGDVIHANNKNQDIASALQNWEDVHKKEDRLDDLVKFCMGVAAFVTTA”, the protein production result is given as “failed”. On to “MSIEIRKLSIEDLETLIEVARESWKWTYAGIYSEEYIESWIREKYSKEKLLNEIVRSQSNLDILFLGAFADSTLIGFIELKIIANKAELLRLYLKPEYTHKKIGKTLLLEAEKIMKKKGILECRLYVHRQNSVGFSFYYKNGFKVEDTDGSDFIMEKKY”, for which the protein production entry was “not failed”.

As to “MSIENLSSNKSFGGWHKQYSHVSNTLNCAMRFAIYLPPQASTGAKVPVLYWLSGLTCSDENFMQKAGAQRLAAELGIAIVAPDTSPRGEGVADDEGYDLGQGAGFYVNATQAPWNRHYQMYDYVVNELPELIESMFPVSDKRAIAGHSMGGHGALTIALRNPERYQSVSAFSPINNPVNCPWGQKAFTAYLGKDTDTWREYDASLLMRAAKQYVPALVDQGEADNFLAEQLKPEVLEAAASSNNYPLELRSHEGYDHSYYFIASFIEDHLRFHSNYLNA”, the protein production entry is “not failed”. Consider “MSIEPVFILVRPQMGENIGAAARAMLNFGLGRLRIVDPRDGWPNPKAVAMASGAGRLLDHAGLFPTVAEAIRDCDYVFATTARGRELTKPVMTPERAMAHGRALTGEGRRVGILFGPERTGLENEDVALANAIVTVPVNPEFFSLNLAQCVLLLAYEWRRQHDETPPEVIDMARVDFASGLEVEKLGDHFEEKLEAAGFFFPPEKAPGMKLNLRNMWARLPLTRADVQTLHGMLRQIAWKLKQ”, for which the protein production result is listed as “not failed”. On to “MSIEVIAVRLTKGMDLKLSLAKLVAEHDIKAGSIASCVGCISDLNLRLAGAESTLTKREPFEIVSVMGTLTPEHQHVHISVSDREGRVWGGHLLEGTVIDTTAELIIHSYSELEFTRAMDDSTGYTELQVNPSKLEHHHHHH”, for which the protein production entry is on record as “not failed”. Take “MSIEYKSEAAAVRRFPGSIVVMGVSGSGKSSVGEAIAEACGYPFIEGDALHPPENIRKMSEGIPLTDDDRWPWLAAIGERLASREPVVVSCSALKRSYRDKLRESAPGGLAFVFLHGSESVLAERMHHRTGHFMPSSLLQTQLETLEDPRGEVRTVAVDVAQPLAEIVREALAGLARL”: the protein production entry is “not failed”.

Regarding “MSIKILSESEIKQVANSYQAPAVLFANPKNLYQRRAKRLRDLAQNHPLSDYLLFAADIVESQLSTLEKNPLPPQQLEQLNTIEPLNAKTFKRNSIWREYLTEILDEIKPKANEQIAATIEFLEKASSAELEEMANKLLAQEFNLVSSDKAVFIWAALSLYWLQAAQQIPHNSQVENAENLHHCPVCGSLPVASMVQIGTSQGLRYLHCNLCESEWNLVRAQCTNCNSHDKLEMWSLNEELALVRAETCGSCESYLKMMFQEKDPYVEPVADDLASIFLDIEMEEKGFARSGLNPFIFPAEEA”, the protein production result was “failed”. For “MSILMLFGLATLRSATYGENEQLFTRQIVWDIAGFSLMFLVLFIKDRTIRNFSIILYVFSVVLLAALLVKGTPIGGSKRWFRVMGFSFQPSDFAKLSLIVLLPYLLEKRWFWRSFFLTVVPAVLIFLEPDLGTTLSVGLIWLFAVLASNVNKKPLVILLILVLVFLPVFFFFGLKDYQRARILSFLNPEEYGESYSYNVLQSIHAIGAGGLFGAGYMKGKANLMGYVPVSYTDFIVSVIGEEFGFIGIVFLLSLFGLLFFEVSRWILNVKDEYWEILMVSACGLIWFHVFENVSMNLGLLPVTGVPLPFISYGGTSTLVFSILVGLILKGIALARVEKKL”, the protein production entry is listed as “failed”.
